According to article PMC7480041 (bioRxiv, 2020):

Biological target: truncated recombinant SARS-CoV-2 nucleocapsid (N) protein, AA133–419 (SARS-CoV-2 (isolate USA-WA1/2020), UniProt P0DTC9)
Test: ELISA

B1: mBG21 (antibody, V domains shown)
VH: QIQLVQSGPELKKPGETVKISCKASGYTFTDYSMHWVKQAPGKGSKWMGWINTETGEPTYADDFKGRFAFSLETSASTAYLQINNLKNEDTATYFCALRRWGQGTLVTVSS
VL: IVMTQTPKFLLVSAGDRVTITCKASQSVSNDVAWFQQKPGQSPKKLLIYFASNRYTGVPDRFTGSGYGTDFTFTITTVQAEDLAVYFCQQDYSSPWTFGGGTKLEIK
**Q.** How did the “corrected average ELISA signal” value turn out when B1 was run?
**A.** Its value is 1.43.
